Measurements reported in paper PMC2921123 (2010).
Each block holds one molecule with its values, some of them ahead of it.

Assays:
Experiment in all cases: SPR
[1] = target: Fc portion of a human BCR μ-chain (Fcμ, amino acid residues 258-586), corresponding to Cμ2-Cμ4 (human)
[2] = target: human Igαβ heterodimer, extracellular domains fused with a leucine zipper (Igαβ-LZ) (human) (UniProt P11912)
[3] = target: T1, Fcμ Fc (Homo sapiens, UniProt P01871)
T1 chain: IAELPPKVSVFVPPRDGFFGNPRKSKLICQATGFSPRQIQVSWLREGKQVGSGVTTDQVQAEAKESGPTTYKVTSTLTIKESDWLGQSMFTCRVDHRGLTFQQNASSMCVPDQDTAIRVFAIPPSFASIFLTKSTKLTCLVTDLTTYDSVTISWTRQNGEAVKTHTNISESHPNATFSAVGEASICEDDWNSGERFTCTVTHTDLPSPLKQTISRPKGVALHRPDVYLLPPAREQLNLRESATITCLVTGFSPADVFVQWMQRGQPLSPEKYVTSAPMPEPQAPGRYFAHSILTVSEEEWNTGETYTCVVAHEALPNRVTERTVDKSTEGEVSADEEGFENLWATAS

Fc portion of a human BCR μ-chain (Fcμ, amino acid residues 258-586), corresponding to Cμ2-Cμ4 (human), sequence (P01871 whole entry, the tested form may be a part): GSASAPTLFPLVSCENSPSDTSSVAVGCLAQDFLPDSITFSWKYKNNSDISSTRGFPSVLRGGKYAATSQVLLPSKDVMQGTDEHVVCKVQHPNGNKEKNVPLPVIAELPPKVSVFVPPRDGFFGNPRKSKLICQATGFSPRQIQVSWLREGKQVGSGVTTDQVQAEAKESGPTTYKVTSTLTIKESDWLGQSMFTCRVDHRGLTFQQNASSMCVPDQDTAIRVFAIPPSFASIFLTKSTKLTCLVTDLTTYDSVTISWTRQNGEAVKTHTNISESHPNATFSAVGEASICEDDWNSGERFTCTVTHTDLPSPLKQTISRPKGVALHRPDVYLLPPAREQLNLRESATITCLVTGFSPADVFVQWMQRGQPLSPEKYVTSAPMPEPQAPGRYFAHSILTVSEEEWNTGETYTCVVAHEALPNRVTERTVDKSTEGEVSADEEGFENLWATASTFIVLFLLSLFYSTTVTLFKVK

fold reduction of binding against the wild type [1]: 2 fold
Molecule: human Igβ extracellular portion, Q123A/Q124A/K125A (β4) (from UniProt P40259 26-159) (domain or fragment)

fold increase of binding against the wild type [1]: 2 fold
Molecule: human Igα extracellular portion, N60A (α3) (from UniProt P11912 33-143) (domain or fragment)

fold reduction of binding against the wild type [1]: 6 fold
Molecule: human Igβ extracellular portion, R55A/K56A/R57A (β1) (from UniProt P40259 26-159) (domain or fragment)

Kd [2]: > 10000 nM
Molecule: human IgM (from UniProt P01591 23-159) (antibody)

Kd [3]: ~2000 nM
B1: Igαβ (protein)
chain 1: LWMHKVPASLMVSLGEDAHFQCPHNSSNNANVTWWRVLHGNYTWPPEFLGPGEDPNGTLIIQNVNKSHGGIYVCRVQEGNESYQQSCGTYLRVRQPPPRPFLDMGEGTKNRIITAEGIILLFCAVVPGTLLLFRKRWQNEKLGLDAGDEYEDENLYEGLNLDDCSMYEDISRGLQGTYQDVGSLNIGDVQLEKP
chain 2: ARSEDRYRNPKGSACSRIWQSPRFIARKRGFTVKMHCYMNSASGNVSWLWKQEMDENPQQLKLEKGRMEESQNESLATLTIQGIRFEDNGIYFCQQKCNNTSEVYQGCGTELRVMGFSTLAQLKQRNTLKDGIIMIQTLLIILFIIVPIFLLLDKDDSKAGMEEDHTYEGLDIDQTATYEDIVTLRTGEVKWSVGEHPGQE
